This note sets out measurements from PMC10645729.

Residue numbers refer to the chain shown, from its start. Numbers in names are those of the source.

The assay deals with T1, human ribonucleotide reductase large subunit RRM1 (human) (UniProt P23921).
T1 sequence: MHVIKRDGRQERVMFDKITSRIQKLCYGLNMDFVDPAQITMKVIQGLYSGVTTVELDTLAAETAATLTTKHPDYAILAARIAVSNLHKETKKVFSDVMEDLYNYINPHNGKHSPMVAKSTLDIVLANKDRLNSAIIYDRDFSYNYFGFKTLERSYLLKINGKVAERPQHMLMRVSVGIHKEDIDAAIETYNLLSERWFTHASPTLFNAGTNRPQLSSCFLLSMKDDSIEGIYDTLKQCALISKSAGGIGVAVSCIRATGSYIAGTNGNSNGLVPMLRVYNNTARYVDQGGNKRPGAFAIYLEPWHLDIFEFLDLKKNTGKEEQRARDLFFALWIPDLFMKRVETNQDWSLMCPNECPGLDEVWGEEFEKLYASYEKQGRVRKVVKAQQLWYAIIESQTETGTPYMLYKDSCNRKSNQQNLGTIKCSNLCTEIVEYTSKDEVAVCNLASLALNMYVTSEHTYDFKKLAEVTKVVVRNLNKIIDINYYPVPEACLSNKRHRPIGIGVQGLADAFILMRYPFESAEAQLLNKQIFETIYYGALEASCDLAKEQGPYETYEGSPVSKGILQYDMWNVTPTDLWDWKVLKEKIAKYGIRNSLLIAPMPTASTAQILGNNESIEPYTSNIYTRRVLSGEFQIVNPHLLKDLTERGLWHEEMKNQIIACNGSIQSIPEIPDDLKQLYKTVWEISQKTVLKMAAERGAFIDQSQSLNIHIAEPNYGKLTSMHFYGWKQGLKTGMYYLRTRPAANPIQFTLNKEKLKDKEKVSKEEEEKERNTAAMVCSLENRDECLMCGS

B1: hRRM2B N221S (enzyme)
chain: MGDPERPEAAGLDQDERSSSDTNESEIKSNEEPLLRKSSRRFVIFPIQYPDIWKMYKQAQASFWTAEEVDLSKDLPHWNKLKADEKYFISHILAFFAASDGIVNENLVERFSQEVQVPEARCFYGFQILIENVHSEMYSLLIDTYIRDPKKREFLFNAIETMPYVKKKADWALRWIADRKSTFGERVVAFAAVEGVFFSGSFAAIFWLKKRGLMPGLTFSSELISRDEGLHCDFACLMFQYLVNKPSEERVREIIVDAVKIEQEFLTEALPVGLIGMNCILMKQYIEFVADRLLVELGFSKVFQAENPFDFMENISLEGKTNFFEKRVSEYQRFAVMAETTDNVFTLDADF
Regarding B1, the RNR activity of the reconstituted complex (CDP to dCDP, HPLC), percent of wild-type hRRM2B; hRRM1 2 μM, hRRM2B 6 μM (% of wild type) was determined as 33.

B2: hRRM2B F206G (enzyme)
chain: B1 chain with F206G, S221N
The molecule B2 returned an RNR activity of the reconstituted complex (CDP to dCDP, HPLC), percent of wild-type hRRM2B; hRRM1 2 μM, hRRM2B 6 μM (% of wild type) of 11.7.

B3: hRRM2B F198G (enzyme)
chain: B1 chain with F198G, S221N
Take B3: the RNR activity of the reconstituted complex (CDP to dCDP, HPLC), percent of wild-type hRRM2B; hRRM1 2 μM, hRRM2B 6 μM (% of wild type) was 19.1.

B4: hRRM2B F202G (enzyme)
chain: B1 chain with F202G, S221N
In the case of B4, the RNR activity of the reconstituted complex (CDP to dCDP, HPLC), percent of wild-type hRRM2B; hRRM1 2 μM, hRRM2B 6 μM (% of wild type) was found to be 21.5.
